{"source": "paper PMC9634968"}
{"experiment": "Western blot after 125 nM CXCL12, 30 min, HEK 293T", "settings": "glycan lost; control: wild type"}
{"protein": "CXCR4: N15A (protein) parent chain: MSIPLPLLQIYTSDNYTEEMGSGDYDSMKEPCFREENANFNKIFLPTIYSIIFLTGIVGNGLVILVMGYQKKLRSMTDKYRLHLSVADLLFVITLPFWAVDAVANWYFGNFLCKAVHVIYTVNLYSSVLILAFISLDRYLAIVHATNSQRPRKLLAEKVVYVGVWIPALLLTIPDFIFANVSEADDRYICDRFYPNDLWVVVFQFQHIMVGLILPGIVILSCYCIIISKLSHSKGHQKRKALKTTVILILAFFACWLPYYIGISIDSFILLEIIKQGCEFENTVHKWISITEALAFFHCCLNPILYAFLGAKFKTSAQHALTSVSRGSSLKILSKGKRGGHSSVSTESESSSFHSS", "degradation_or_half_life": "increases"}
{"protein": "CXCR4: N180A (protein) parent chain: MSIPLPLLQIYTSDNYTEEMGSGDYDSMKEPCFREENANFNKIFLPTIYSIIFLTGIVGNGLVILVMGYQKKLRSMTDKYRLHLSVADLLFVITLPFWAVDAVANWYFGNFLCKAVHVIYTVNLYSSVLILAFISLDRYLAIVHATNSQRPRKLLAEKVVYVGVWIPALLLTIPDFIFANVSEADDRYICDRFYPNDLWVVVFQFQHIMVGLILPGIVILSCYCIIISKLSHSKGHQKRKALKTTVILILAFFACWLPYYIGISIDSFILLEIIKQGCEFENTVHKWISITEALAFFHCCLNPILYAFLGAKFKTSAQHALTSVSRGSSLKILSKGKRGGHSSVSTESESSSFHSS", "degradation_or_half_life": "no change"}
{"protein": "CXCR4: N15A/N180A (protein) parent chain: MSIPLPLLQIYTSDNYTEEMGSGDYDSMKEPCFREENANFNKIFLPTIYSIIFLTGIVGNGLVILVMGYQKKLRSMTDKYRLHLSVADLLFVITLPFWAVDAVANWYFGNFLCKAVHVIYTVNLYSSVLILAFISLDRYLAIVHATNSQRPRKLLAEKVVYVGVWIPALLLTIPDFIFANVSEADDRYICDRFYPNDLWVVVFQFQHIMVGLILPGIVILSCYCIIISKLSHSKGHQKRKALKTTVILILAFFACWLPYYIGISIDSFILLEIIKQGCEFENTVHKWISITEALAFFHCCLNPILYAFLGAKFKTSAQHALTSVSRGSSLKILSKGKRGGHSSVSTESESSSFHSS", "degradation_or_half_life": "increases"}
